Measurements reported in PMC4726246.

B1: TASK-1: N53A (protein)
parent chain: MKRQNVRTLALIVCTFTYLLVGAAVFDALESEPELIERQRLELRQQELRARYNLSQGGYEELERVVLRLKPHKAGVQWRFAGSFYFAITVITTIGYGHAAPSTDGGKVFCMFYALLGIPLTLVMFQSLGERINTLVRYLLHRAKKGLGMRRADVSMANMVLIGFFSCISTLCIGAAAFSHYEHWTFFQAYYYCFITLTTIGFGDYVALQKDQALQTQPQYVAFSFVYILTGLTVIGAFLNLVVLRFMTMNAEDEKRDAEHRALLTRNGQAGGGGGGGSAHTTDTASSTAAAGGGGFRNVYAEVLHFQSMCSCLWYKSREKLQYSIPMIIPRDLSTSDTCVEQSHSSPGGGGRYSDTPSRRCLCSGAPRSAISSVSTGLHSLSTFRGLMKRRSSV
B2: TASK-1: S55A (protein)
parent chain: B1 parent chain

Experiments:
[1] = TEVC, co-expression in Xenopus oocytes, +40 mV; settings: glycan lost; control: TASK-3 WT alone
[2] = ratio of TEVC current to surface expression; settings: glycan lost; control: wild type

Row | Protein | other: current of co-expressed TASK-3 [1] | other: conductivity (current / surface expression ratio) [2]
1 | B1 | no change | no change
2 | B2 | – | no change
